# Assay results published in publication PMC8198530, “The Odd Faces of Oligomers: The Case of TRAF2-C, A Trimeric C-Terminal Domain of TNF Receptor-Associated Factor” (International Journal of Molecular Sciences, 2021).
# B1: TRAF2-C, C-terminal domain truncated form of TNF Receptor Associated Factor 2 (TRAF2) (domain or fragment, human, UniProt Q12933 310-501, looked up)
# chain: DQDKIEALSSKVQQLERSIGLKDLAMADLEQKVLEMEASTYDGVFIWKISDFARKRQEAVAGRIPAIFSPAFYTSRYGYKMCLRIYLNGDGTGRGTHLSLFFVVMKGPNDALLRWPFNQKVTLMLLDQNNREHVIDAFRPDVTSSSFQRPVNDMNIASGCPLFCPVSKMEAKNSYVRDDAIFIKAIVDLTGL
# notes: human TRAF2, C-terminal domain (TRAF2-C), residues 310-501; It describes the protein as a trimer in equilibrium with dimers and monomers; also called TRAF2-C domain; source: E. coli BL21 (DE3), purified (NiNTA, Sephadex G25)
# Molecular target: the molecule itself
# Test: dynamic light scattering; TRAF2-C 4 uM in kinase buffer (20 mM Tris-HCl pH 7.6, 150 mM NaCl, 10% glycerol); 20-35 °C, where the particle distribution is sharp and mono-disperse
protein,measurement,value
B1,binding result,binds
